Results published in paper PMC7714070, “The role of the cytoskeletal proteins MreB and FtsZ in multicellular cyanobacteria” (FEBS Open Bio, 2020).

Target: the molecule itself
Experiment: in vitro polymerisation seen by epifluorescence microscopy; Ni-NTA-purified FtsZ-His labelled with NHS-Fluorescein, in FtsZ polymerization buffer (50 mM MES, 50 mM KCl, 10 mM MgCl2, 2 mM GTP, pH 6.5), 40 min at 30 °C

B1: Polyhistidine tagged FtsZ from Fischerella muscicola PCC 7414 (natural protein, UniProt A0A2N6JXP9 1-430, looked up)
chain: MTLDNNQGLTYKNSQSPGQSTFSLAVNSTNPFNHSGLSFGQNNDSKKIEREETRIGDIVPGRVANIKVIGVGGGGSNAVNRMIASDVSGVEFWSINTDAQALTLAAAPSRLQIGQKLTRGLGAGGNPAIGTKAAEESRDEIATALDGADLVFITAGMGGGTGTGAAPIVAEVAKEMGALTVGVVTRPFIFEGRRRISQAEQGIEGLKSRVDTLIIIPNNKLLEVIPEQTPMQEAFRYADDVLRQGVQGISDIITIPGLINVDFADVRAVMADAGSALMGIGIGSGKSRAREAAIAAISSPLLECSIEGARGVVFNITGGSDLTLHEVNAAAETIYEVVDPNANIIFGAVIDDRLQGEVRLTVIATGFTGEAPAAQQSNVTQGRVVQPPPQRRPMQQPPAPNPPTQTPEPKEKGSVLDIPDFLRKRTPPRN
modifications: labelled with NHS-Fluorescein
notes: FtsZ of Fischerella muscicola PCC 7414; also called FtsZFm-His; FtsZ-His; source: E. coli BL21 (DE3), purified (Ni-NTA)
  binding result: binds

B2: Polyhistidine tagged FtsZ from Anabaena sp. PCC 7120 (natural protein, UniProt P45482 1-428, looked up)
chain: MTLDNNQELTYRNSQSLGQPGFSLAVNSSNPFNHSGLNFGQNNDSKKISVENNRIGEIVPGRVANIKVIGVGGGGGNAVNRMIESDVSGVEFWSINTDAQALTLAGAPSRLQIGQKLTRGLGAGGNPAIGQKAAEESRDEIATALEGADLVFITAGMGGGTGTGAAPIVAEVAKEMGALTVGVVTRPFVFEGRRRTSQAEQGIEGLKSRVDTLIIIPNNKLLEVIPEQTPVQEAFRYADDVLRQGVQGISDIITIPGLVNVDFADVRAVMADAGSALMGIGVSSGKSRAREAAIAAISSPLLECSIEGARGVVFNITGGSDLTLHEVNAAAETIYEVVDPNANIIFGAVIDDRLQGEVRITVIATGFTGEIQAAPQQNAANARVVSAPPKRTPTQTPLTNSPAPTPEPKEKSGLDIPDFLQRRRPPKN
modifications: labelled with NHS-Fluorescein
notes: FtsZ of Anabaena sp; PCC 7120; also called FtsZAna-His; FtsZ-His; source: E. coli BL21 (DE3), purified (Ni-NTA)
  binding result: binds
